The text below walks through data of patent US6897197 (ALBERT EINSTEIN COLLEGE OF MEDICINE OF YESHIVA UNIVERSITY, dated 2005).

In experiment [1] the target is T1, human MDM2, full length (CMV driven expression construct pCHDM1A) (human, UniProt Q00987 1-491).
T1 construct: Expressed in transfected cells; also called HDM-2
The experiment in a line: low stringency co-immunoprecipitation (anti-FLAG IP, anti-MDM2 Western blot), 293T cells transfected with MDM2 and p19FLAG. The method, then: (§1) For immunoprecipitations, subconfluent 293T cells were transfected with 3 µg each of the appropriate expression constructs shown in FIG. 3, and 80 µg of Lipofectamine reagent (Gibco BRL). […] Untransfected 3T3-DM cells were lysed in a low stringency buffer as above.
(Immunoblotting shows a protein as a band on a membrane.)

The target in experiment [2] is T2, endogenous MDM2 of untransfected 3T3DM cells (UniProt P23804 1-489).
T2 construct: 3T3DM is a mouse cell line; Detected with antibody 2A10; also called p90/p85
T2 sequence (P23804 whole entry): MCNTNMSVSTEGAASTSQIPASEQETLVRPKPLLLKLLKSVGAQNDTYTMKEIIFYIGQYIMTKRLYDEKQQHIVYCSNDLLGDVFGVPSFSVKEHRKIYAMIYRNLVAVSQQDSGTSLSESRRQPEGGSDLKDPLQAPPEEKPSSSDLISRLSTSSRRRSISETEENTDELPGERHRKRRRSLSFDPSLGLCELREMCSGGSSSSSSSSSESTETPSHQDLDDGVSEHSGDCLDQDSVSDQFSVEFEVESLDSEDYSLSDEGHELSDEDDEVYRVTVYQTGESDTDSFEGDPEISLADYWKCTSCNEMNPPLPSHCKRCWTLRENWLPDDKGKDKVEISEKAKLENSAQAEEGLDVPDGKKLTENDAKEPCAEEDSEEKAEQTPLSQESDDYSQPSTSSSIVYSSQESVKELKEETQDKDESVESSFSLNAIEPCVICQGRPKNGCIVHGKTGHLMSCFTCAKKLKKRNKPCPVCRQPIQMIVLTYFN
The experiment in a line: anti-p19^ARF immunoprecipitation, anti-MDM2 Western blot, untransfected 3T3DM cells. On the procedure: as §1

T1 sequence (Q00987 whole entry): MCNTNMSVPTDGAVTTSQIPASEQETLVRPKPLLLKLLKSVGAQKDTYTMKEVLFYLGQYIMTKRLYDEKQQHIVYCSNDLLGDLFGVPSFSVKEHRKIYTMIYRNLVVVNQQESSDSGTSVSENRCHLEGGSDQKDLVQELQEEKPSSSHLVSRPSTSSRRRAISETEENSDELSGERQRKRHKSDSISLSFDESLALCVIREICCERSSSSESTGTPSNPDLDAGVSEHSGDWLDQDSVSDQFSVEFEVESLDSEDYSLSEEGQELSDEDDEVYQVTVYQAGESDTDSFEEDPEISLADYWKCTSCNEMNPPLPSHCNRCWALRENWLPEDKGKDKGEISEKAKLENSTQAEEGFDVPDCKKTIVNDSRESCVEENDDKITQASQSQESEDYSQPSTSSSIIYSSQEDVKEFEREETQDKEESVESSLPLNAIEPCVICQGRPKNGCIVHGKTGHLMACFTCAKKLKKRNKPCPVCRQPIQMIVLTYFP

B1: FLAG epitope-tagged p19^ARF protein (other, mouse, UniProt Q64364 1-169, looked up, not shown: small tags and cut ends)
chain: MGRRFLVTVRIQRAGRPLQERVFLVKFVRSRRPRTASCALAFVNMLLRLERILRRGPHRNPGPGDDDGQRSRSSSSAQLRCRFELRGPHYLLPPGARRSAGRLPGHAGGAARVRGSAGCARCLGSPAARLGPRAGTSRHRAIFAFRWVLFVFRWVVFVYRWERRPDRRA
notes: Expressed from pcDNA in transfected 293T, SAOS2 or HeLa cells; also called p19^FLAG; p19FLAG
Consider B1, for which the binding result in experiment [1] is listed as “binds”.

B2: endogenous p19^ARF of untransfected 3T3DM cells (other, UniProt Q64364 1-169, looked up)
chain: MGRRFLVTVRIQRAGRPLQERVFLVKFVRSRRPRTASCALAFVNMLLRLERILRRGPHRNPGPGDDDGQRSRSSSSAQLRCRFELRGPHYLLPPGARRSAGRLPGHAGGAARVRGSAGCARCLGSPAARLGPRAGTSRHRAIFAFRWVLFVFRWVVFVYRWERRPDRRA
notes: Immunoprecipitated with rabbit polyclonal anti-p19^ARF antiserum
Regarding B2, in experiment [2], the binding result is “binds”.
